Measurements published in patent EP3205670.
Where a chain is given by its changes, count along the chain named.

B1: Numax Fab (antibody, V domains shown)
VH: QVTLRESGPALVKPTQTLTLTCTFSGFSLSTAGMSVGWIRQPPGKALEWLADIWWDDKKHYNPSLKDRLTISKDTSKNQVVLKVTNMDPADTATYYCARDMIFNFYFDVWGQGTTVTVSS
VL: DIQMTQSPSTLSASVGDRVTITCSASSRVGYMHWYQQKPGKAPKLLIYDTSKLASGVPSRFSGSGSGTEFTLTISSLQPDDFATYYCFQGSGYPFTFGGGTKVEIK
B2: Synagis Fab (antibody, V domains shown)
VH: B1 VH with A32S, H60D, D67S, D100S, F103T, F105W, Q112A
VL: B1 VL with S24K, A25C, S26Q, S27L, R28S, V103L
B3: Synagis (antibody, V domains shown)
VH: B1 VH with A32S, H60D, D67S, D100S, F103T, F105W, Q112A
VL: B1 VL with S24K, A25C, S26Q, S27L, R28S, V103L

What was measured:
hRSV F protein (FTM-NN) [1] = target: T1, hRSV F protein (FTM-NN) (hRSV, UniProt P03420); assay: competition, AlphaScreen
T1 sequence (P03420 26-524): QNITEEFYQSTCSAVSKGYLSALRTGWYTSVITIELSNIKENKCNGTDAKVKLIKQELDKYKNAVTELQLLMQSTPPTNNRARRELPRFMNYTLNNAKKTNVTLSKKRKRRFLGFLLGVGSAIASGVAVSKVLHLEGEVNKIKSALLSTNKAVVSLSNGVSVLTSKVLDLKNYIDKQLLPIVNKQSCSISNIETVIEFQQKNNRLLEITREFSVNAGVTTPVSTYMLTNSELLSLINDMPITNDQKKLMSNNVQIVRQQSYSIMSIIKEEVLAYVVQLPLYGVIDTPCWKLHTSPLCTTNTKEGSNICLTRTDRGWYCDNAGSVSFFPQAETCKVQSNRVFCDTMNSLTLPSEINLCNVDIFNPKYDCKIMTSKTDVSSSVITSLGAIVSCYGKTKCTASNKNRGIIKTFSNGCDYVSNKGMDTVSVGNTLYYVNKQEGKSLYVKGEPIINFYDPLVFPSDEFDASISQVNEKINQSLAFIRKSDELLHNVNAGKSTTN

hRSV F protein (FTM-NN) [2] = target: T1, hRSV F protein (FTM-NN); assay: SPR

| Binder | IC50 (hRSV F protein (FTM-NN) [1]) [nM] | Kd (hRSV F protein (FTM-NN) [2]) [nM] |
| --- | --- | --- |
| B1 | 0.086 | – |
| B2 | 0.597 | – |
| B3 | – | 0.64 |
